Source: PMC11362013, “Mechanism for controlled assembly of transcriptional condensates by Aire” (Nature Immunology, 2024)

T1: CBP TAZ2 (mouse, UniProt P45481 1764-1855)
T1 chain: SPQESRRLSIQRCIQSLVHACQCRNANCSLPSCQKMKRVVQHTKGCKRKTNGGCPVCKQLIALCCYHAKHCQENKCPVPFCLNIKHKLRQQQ

T2: CBP TAZ2 (mouse, UniProt P45481 1764-1855)
T2 construct: the recombinant construct itself is described in the Supplementary Note; also called isolated CBP TAZ2; recombinant CBP TAZ2; source: E. coli, purified (details in the Supplementary Note)
T2 sequence (looked up): T1 chain

B1: mouse Aire CTT (aa 480-552) (domain or fragment, UniProt Q9Z0E3 480-552, looked up)
chain: TPTPGTPGEAVPTSGPRPAPGLAKVGDDSASHDPVLHRDDLESLLNEHSFDGILQWAIQSMSRPLAETPPFSS
notes: Aire (autoimmune regulator), mouse, C-terminal tail (CTT), residues 480-552; Used in NMR (15N13C-labelled) and ITC; whether tags were left on it is told only in the Supplementary Note; also called isolated CTT; source: E. coli, purified (details in the Supplementary Note)

What was measured:
[1] = target: FAM-labeled H3 peptide (aa 1-21) with K4me1 (UniProt P68431); assay: fluorescence polarisation; 50 nM fluorescein-labeled H3 peptide, increasing PHD (0-900 μM) in SEC Buffer (25 mM HEPES pH 7.5, 100 mM NaCl, 5 mM BME), 25 °C; simple binding isotherm
[2] = target: FAM-labeled H3 peptide (aa 1-21) with no modification (UniProt P68431); assay: as above
[3] = target: T1, CBP TAZ2; assay: ITC; two-site model, second site
[4] = target: T2, CBP TAZ2; assay: ITC; 760 μM mouse Aire CTT in the syringe, 19-76 μM TAZ2 in the cell; 20 °C; 20 mM HEPES pH 7.5, 100 mM NaCl, 1 mM dithiothreitol; two-site binding model; settings: both partners purified

Molecule	Kd [1]	Kd [2]	Kd [3]	Kd of the high-affinity site (two-site model) [4]	Kd of the second, low-affinity site (two-site model) [4]
mouse Aire PHD1 (domain or fragment)	23.2 µM	5.25 µM			
CHD4 PHD2 (domain or fragment)		45.3 µM			
B1			39.7 µM	0.26 µM	40 µM
